From patent US12616740B2, “Methods of using a GIP/GLP1 co-agonist for therapy” (ELI LILLY AND COMPANY, priority 2018, dated 2026)

Test: NCT03131687: nausea, vomiting and diarrhea, new events per interval
Assay type: in vivo, human
Description: Clinical Study (NCT03131687) Supporting Maintenance Dose Embodiments A 6-month (26-week) Phase 2 double-blind clinical study is designed to evaluate the safety, efficacy, and PK/PD of 4 dose levels (1 mg, 5 mg, 10 mg and 15 mg respectively) of tirzepatide once weekly by subcutaneous injection compared with dulaglutide 1.5 mg. once weekly (QW) and placebo QW in patients with T2DM who have inadequate glycemic control with diet and exercise with or without a stable dose of metformin. Tirzepatide dose is up-titrated to the maintenance dose using the following weekly dose increments:
The study also has a 4-week follow up period. In addition to safety and efficacy for treating T2DM, efficacy endpoints include the effect of tirzepatide on HbA1c, FBG, body weight, lipids, and waist circumference compared with placebo and with dulaglutide 1.5 mg. The study also evaluates the effect of tirzepatide on GI tolerability, hypoglycemia, hypersensitivity reactions, and pancreatic safety, as well as the development of treatment-emergent anti-drug antibodies. Model-based dose response analyses are performed to predict potential for significant HbA1c lowering and weight loss in longer studies. Statistical Analyses: Efficacy: The primary efficacy outcome of HbA1c change from baseline to the 26-week endpoint is analyzed using a Bayesian dose-response model. Analyses are performed on the intention to treat population (mITT) analysis set. Supportive analysis of the primary efficacy outcome for the mITT dataset are the model for post-baseline measures (MMRM) with body mass index (BMI) (<30 kg/m^2, ≥30 kg/m^2), metformin use, treatment, visit, and treatment-by-visit interaction as fixed effects, baseline HbA1c as a covariate, and patient as a random effect. The mean weight change from baseline at 12 and 26 weeks, along with the mean change from baseline of HbA1c at 12 weeks, is analyzed using similar dose-response models as the primary analyses. The percentages of patients with ≥5% or ≥10% body weight loss, reaching the HbA1c target of ≤6.5% or ≤7.0% at 26 weeks, or requiring rescue therapy are analyzed using logistic regression with fixed effects of treatment and strata, and baseline as a covariate. The changes from baseline in FBG (fasting blood glucose), SMBG (self-monitored blood glucose) levels, waist circumference, and mean percentage change in lipids from baseline to 12 and 26 weeks are analyzed using a similar MMRM to the one used for the primary analyses. Table Abbreviations: Dula 1.5 mg=dulaglutide 1.5 mg once weekly; LY means tirzepatide, and LY 1 mg=tirzepatide 1 mg once weekly; LY 5 mg=5 mg once weekly; LY 10 mg=escalation dose group tirzepatide once weekly with highest dose of 10 mg; LY 15 mg=escalation dose group of tirzepatide once weekly with highest dose 15 mg; LOCF=last observation-carried-forward; N=number of patients; pbo=placebo; Week 26=mITT on-treatment data at Week 26 excluding data after study drug discontinuation or rescue drug initiation; mITT=modified intent-to-treat; SD=standard deviation. For Table 4, n=number of patients in the population with baseline and post-baseline value at the specified time point. For Table 6, LY10 mg=escalation dose group tirzepatide, once weekly with highest dose of 10 mg; escalation dose: (5 mg weeks 0 and 1), LY15 mg=escalation dose group tirzepatide, once weekly with highest dose of 15 mg; escalation dose: (5 mg weeks 0 and 1; 10 mg weeks 2 to 5); N=number of patients in specified group, m=number of patients who experienced new event during interval, FolUp=follow up, T/Wk=Time range, (week) and %=means percent patients spending at least some time in treatment group who experienced new event during interval. For Table 7, n is the number of patients with events meeting the criteria; N is number of patients in the population; % is percent of patients in treatment group experiencing the event.

[1] = LY10 mg (tirzepatide 5 mg weeks 0 and 1, then 10 mg once weekly), N = 51, Fol Up (follow up)
[2] = LY10 mg (tirzepatide 5 mg weeks 0 and 1, then 10 mg once weekly), N = 51, T/Wk 0
[3] = LY10 mg (tirzepatide 5 mg weeks 0 and 1, then 10 mg once weekly), N = 51, T/Wk 1
[4] = LY10 mg (tirzepatide 5 mg weeks 0 and 1, then 10 mg once weekly), N = 51, T/Wk 2
[5] = LY10 mg (tirzepatide 5 mg weeks 0 and 1, then 10 mg once weekly), N = 51, T/Wk 3
[6] = LY10 mg (tirzepatide 5 mg weeks 0 and 1, then 10 mg once weekly), N = 51, T/Wk 4
[7] = LY10 mg (tirzepatide 5 mg weeks 0 and 1, then 10 mg once weekly), N = 51, T/Wk 5
[8] = LY10 mg (tirzepatide 5 mg weeks 0 and 1, then 10 mg once weekly), N = 51, T/Wk 6
[9] = LY10 mg (tirzepatide 5 mg weeks 0 and 1, then 10 mg once weekly), N = 51, T/Wk 7
[10] = LY10 mg (tirzepatide 5 mg weeks 0 and 1, then 10 mg once weekly), N = 51, T/Wk 8
[11] = LY10 mg (tirzepatide 5 mg weeks 0 and 1, then 10 mg once weekly), N = 51, T/Wk 9
[12] = LY10 mg (tirzepatide 5 mg weeks 0 and 1, then 10 mg once weekly), N = 51, T/Wk 10
[13] = LY10 mg (tirzepatide 5 mg weeks 0 and 1, then 10 mg once weekly), N = 51, T/Wk 11
[14] = LY10 mg (tirzepatide 5 mg weeks 0 and 1, then 10 mg once weekly), N = 51, T/Wk 12
[15] = LY10 mg (tirzepatide 5 mg weeks 0 and 1, then 10 mg once weekly), N = 51, T/Wk >12 < 16
[16] = LY10 mg (tirzepatide 5 mg weeks 0 and 1, then 10 mg once weekly), N = 51, T/Wk >16 ≤ 20
[17] = LY10 mg (tirzepatide 5 mg weeks 0 and 1, then 10 mg once weekly), N = 51, T/Wk >20
[18] = LY15 mg (tirzepatide 5 mg weeks 0 and 1; 10 mg weeks 2 to 5; then 15 mg once weekly), N = 53, Fol Up (follow up)
[19] = LY15 mg (tirzepatide 5 mg weeks 0 and 1; 10 mg weeks 2 to 5; then 15 mg once weekly), N = 53, T/Wk 0
[20] = LY15 mg (tirzepatide 5 mg weeks 0 and 1; 10 mg weeks 2 to 5; then 15 mg once weekly), N = 53, T/Wk 1
[21] = LY15 mg (tirzepatide 5 mg weeks 0 and 1; 10 mg weeks 2 to 5; then 15 mg once weekly), N = 53, T/Wk 2
[22] = LY15 mg (tirzepatide 5 mg weeks 0 and 1; 10 mg weeks 2 to 5; then 15 mg once weekly), N = 53, T/Wk 3
[23] = LY15 mg (tirzepatide 5 mg weeks 0 and 1; 10 mg weeks 2 to 5; then 15 mg once weekly), N = 53, T/Wk 4
[24] = LY15 mg (tirzepatide 5 mg weeks 0 and 1; 10 mg weeks 2 to 5; then 15 mg once weekly), N = 53, T/Wk 5
[25] = LY15 mg (tirzepatide 5 mg weeks 0 and 1; 10 mg weeks 2 to 5; then 15 mg once weekly), N = 53, T/Wk 6
[26] = LY15 mg (tirzepatide 5 mg weeks 0 and 1; 10 mg weeks 2 to 5; then 15 mg once weekly), N = 53, T/Wk 7
[27] = LY15 mg (tirzepatide 5 mg weeks 0 and 1; 10 mg weeks 2 to 5; then 15 mg once weekly), N = 53, T/Wk 8
[28] = LY15 mg (tirzepatide 5 mg weeks 0 and 1; 10 mg weeks 2 to 5; then 15 mg once weekly), N = 53, T/Wk 9
[29] = LY15 mg (tirzepatide 5 mg weeks 0 and 1; 10 mg weeks 2 to 5; then 15 mg once weekly), N = 53, T/Wk 10
[30] = LY15 mg (tirzepatide 5 mg weeks 0 and 1; 10 mg weeks 2 to 5; then 15 mg once weekly), N = 53, T/Wk 11
[31] = LY15 mg (tirzepatide 5 mg weeks 0 and 1; 10 mg weeks 2 to 5; then 15 mg once weekly), N = 53, T/Wk 12
[32] = LY15 mg (tirzepatide 5 mg weeks 0 and 1; 10 mg weeks 2 to 5; then 15 mg once weekly), N = 53, T/Wk >12 < 16
[33] = LY15 mg (tirzepatide 5 mg weeks 0 and 1; 10 mg weeks 2 to 5; then 15 mg once weekly), N = 53, T/Wk >16 ≤ 20
[34] = LY15 mg (tirzepatide 5 mg weeks 0 and 1; 10 mg weeks 2 to 5; then 15 mg once weekly), N = 53, T/Wk >20

tirzepatide [LY]
3: Nausea Vomiting and Diarrhea: m, number of patients who experienced new event during interval [6] | Nausea Vomiting and Diarrhea: m, number of patients who experienced new event during interval [21] | Nausea Vomiting and Diarrhea: m, number of patients who experienced new event during interval [23] | Nausea Vomiting and Diarrhea: m, number of patients who experienced new event during interval [26]
m = 0; 0%: Nausea Vomiting and Diarrhea: % patients who experienced new event during interval [12] | Nausea Vomiting and Diarrhea: m, number of patients who experienced new event during interval [12] | Nausea Vomiting and Diarrhea: % patients who experienced new event during interval [13] | Nausea Vomiting and Diarrhea: m, number of patients who experienced new event during interval [13]
17: Nausea Vomiting and Diarrhea: m, number of patients who experienced new event during interval [19]
11.4%: Nausea Vomiting and Diarrhea: % patients who experienced new event during interval [22]
0: Nausea Vomiting and Diarrhea: m, number of patients who experienced new event during interval [18] | Nausea Vomiting and Diarrhea: m, number of patients who experienced new event during interval [28] | Nausea Vomiting and Diarrhea: m, number of patients who experienced new event during interval [29]
4.1%: Nausea Vomiting and Diarrhea: % patients who experienced new event during interval [9] | Nausea Vomiting and Diarrhea: % patients who experienced new event during interval [11]
0.0%: Nausea Vomiting and Diarrhea: % patients who experienced new event during interval [18] | Nausea Vomiting and Diarrhea: % patients who experienced new event during interval [28] | Nausea Vomiting and Diarrhea: % patients who experienced new event during interval [29]
5.8%: Nausea Vomiting and Diarrhea: % patients who experienced new event during interval [21]
32.1%: Nausea Vomiting and Diarrhea: % patients who experienced new event during interval [19]
6.0%: Nausea Vomiting and Diarrhea: % patients who experienced new event during interval [6]
2.1%: Nausea Vomiting and Diarrhea: % patients who experienced new event during interval [1] | Nausea Vomiting and Diarrhea: % patients who experienced new event during interval [16] | Nausea Vomiting and Diarrhea: % patients who experienced new event during interval [17] | Nausea Vomiting and Diarrhea: % patients who experienced new event during interval [31] | Nausea Vomiting and Diarrhea: % patients who experienced new event during interval [32] | Nausea Vomiting and Diarrhea: % patients who experienced new event during interval [33] | Nausea Vomiting and Diarrhea: % patients who experienced new event during interval [34]
10: Nausea Vomiting and Diarrhea: m, number of patients who experienced new event during interval [20]
5.9%: Nausea Vomiting and Diarrhea: % patients who experienced new event during interval [23] | Nausea Vomiting and Diarrhea: % patients who experienced new event during interval [26]
6: Nausea Vomiting and Diarrhea: m, number of patients who experienced new event during interval [22]
9: Nausea Vomiting and Diarrhea: m, number of patients who experienced new event during interval [2]
2.0%: Nausea Vomiting and Diarrhea: % patients who experienced new event during interval [5] | Nausea Vomiting and Diarrhea: % patients who experienced new event during interval [8] | Nausea Vomiting and Diarrhea: % patients who experienced new event during interval [10] | Nausea Vomiting and Diarrhea: % patients who experienced new event during interval [14] | Nausea Vomiting and Diarrhea: % patients who experienced new event during interval [15] | Nausea Vomiting and Diarrhea: % patients who experienced new event during interval [24] | Nausea Vomiting and Diarrhea: % patients who experienced new event during interval [30]
2: Nausea Vomiting and Diarrhea: m, number of patients who experienced new event during interval [3] | Nausea Vomiting and Diarrhea: m, number of patients who experienced new event during interval [4] | Nausea Vomiting and Diarrhea: m, number of patients who experienced new event during interval [7] | Nausea Vomiting and Diarrhea: m, number of patients who experienced new event during interval [9] | Nausea Vomiting and Diarrhea: m, number of patients who experienced new event during interval [11] | Nausea Vomiting and Diarrhea: m, number of patients who experienced new event during interval [25] | Nausea Vomiting and Diarrhea: m, number of patients who experienced new event during interval [27]
20%: Nausea Vomiting and Diarrhea: % patients who experienced new event during interval [2]
1: Nausea Vomiting and Diarrhea: m, number of patients who experienced new event during interval [1] | Nausea Vomiting and Diarrhea: m, number of patients who experienced new event during interval [5] | Nausea Vomiting and Diarrhea: m, number of patients who experienced new event during interval [8] | Nausea Vomiting and Diarrhea: m, number of patients who experienced new event during interval [10] | Nausea Vomiting and Diarrhea: m, number of patients who experienced new event during interval [14] | Nausea Vomiting and Diarrhea: m, number of patients who experienced new event during interval [15] | Nausea Vomiting and Diarrhea: m, number of patients who experienced new event during interval [16] | Nausea Vomiting and Diarrhea: m, number of patients who experienced new event during interval [17] | Nausea Vomiting and Diarrhea: m, number of patients who experienced new event during interval [24] | Nausea Vomiting and Diarrhea: m, number of patients who experienced new event during interval [30] | Nausea Vomiting and Diarrhea: m, number of patients who experienced new event during interval [31] | Nausea Vomiting and Diarrhea: m, number of patients who experienced new event during interval [32] | Nausea Vomiting and Diarrhea: m, number of patients who experienced new event during interval [33] | Nausea Vomiting and Diarrhea: m, number of patients who experienced new event during interval [34]
18.9%: Nausea Vomiting and Diarrhea: % patients who experienced new event during interval [20]
3.9%: Nausea Vomiting and Diarrhea: % patients who experienced new event during interval [3] | Nausea Vomiting and Diarrhea: % patients who experienced new event during interval [4] | Nausea Vomiting and Diarrhea: % patients who experienced new event during interval [25]
4.0%: Nausea Vomiting and Diarrhea: % patients who experienced new event during interval [7] | Nausea Vomiting and Diarrhea: % patients who experienced new event during interval [27]
